This note sets out measurements from patent US6232070A, “Pharmacological targeting of mRNA cap formation” (priority 1999, dated 2001).

A word on the Km: it is the substrate concentration at which the rate is half of its maximum.

Substrate in data set [1]: Nc1ncnc2c1ncn2[C@@H]1O[C@H](COP(=O)(O)OP(=O)(O)OP(=O)(O)O)[C@@H](O)[C@H]1O
The data set is described as follows: ATP hydrolysis by Cet1p, manganese-dependent. As to conditions: other: 2 mM MnCl2, pH 7.0, 30° C., double-reciprocal plot. Type of data set: biochemical, Saccharomyces cerevisiae. The protocol: (FIG. 8A) Protein titration. Reaction mixtures (10 μl) containing 50 mM Tris HCl (pH 7.0), 5 mM DTT, 2 mM MnCl2, 1 mM [γ^32 P]ATP, and either Cet1p, Cet1(201-549)p, or Cet1(246-549)p were incubated for 15 min at 30° C. Pi release is plotted as a function of input protein. (FIG. 8B) Kinetics. Reaction mixtures (100 μl) containing 50 mM Tris HCl (pH 7.0), 5 mM DTT, 2 mM MnCl2, 1 mM [γ^32 P]ATP, and either 8, 16, or 32 nM Cet1p were incubated at 30° C. Aliquots (10 μl ) were withdrawn at the times indicated and quenched immediately by the addition of […] of 5 M formic acid. Pi release is plotted as a function of time. (FIG. 8C) Hydrolysis of [α^32 P]ATP. […] The products were analyzed by TLC. […] An otherwise identical reaction containing 1 mM [γ^32 P]ATP was analyzed in parallel; Pi release (.cndot.). […]
The extent of ^32 Pi release from [γ^32 P]ATP during a 15 min reaction was proportional to the amount of input Cet1p protein (FIG. 8A). ^32 Pi accumulated with time over 30 min; the rate of reaction varied linearly with Cet1p concentration (FIG. 8B). From a plot of initial rate versus enzyme concentration, a turnover number of 25 s^-1 was calculated. Cet1p catalyzed the quantitative conversion of [α^32P]ATP to [α^32 P]ADP. […] No formation of [α^32 P]AMP from [α^32 P]ATP was detected, even after 20-45 min of incubation, by which time all of the nucleotide had been converted to ADP. […]

Substrate in data set [2]: Nc1ncnc2c1ncn2[C@@H]1O[C@H](COP(=O)(O)OP(=O)(O)OP(=O)(O)O)[C@@H](O)[C@H]1O
The data set can be described thus: ATP hydrolysis by Cet1(201-549)p. Type of data set: biochemical, Saccharomyces cerevisiae. As to conditions: other: ATP hydrolysis by the truncated enzyme; pH 7.0; 30.0 °C. The protocol:
(FIG. 8A) Protein titration. Reaction mixtures (10 μl) containing 50 mM Tris HCl (pH 7.0), 5 mM DTT, 2 mM MnCl2, 1 mM [γ^32 P]ATP, and either Cet1p, Cet1(201-549)p, or Cet1(246-549)p were incubated for 15 min at 30° C. Pi release is plotted as a function of input protein. (FIG. 8B) Kinetics. Reaction mixtures (100 μl) containing 50 mM Tris HCl (pH 7.0), 5 mM DTT, 2 mM MnCl2, 1 mM [γ^32 P]ATP, and either 8, 16, or 32 nM Cet1p were incubated at 30° C. Aliquots (10 μl ) were withdrawn at the times indicated and quenched immediately by the addition of […] of 5 M formic acid. Pi release is plotted as a function of time. (FIG. 8C) Hydrolysis of [α^32 P]ATP. Reaction mixtures (100 μl) containing 50 mM Tris HCl (pH 7.0), 5 mM DTT, 2 mM MnCl2, 1 mM [α^32 P]ATP, and 100 ng of Cet1p were incubated at 30° C. Aliquots (10 μl) were withdrawn at the times indicated and quenched with formic acid. The products were analyzed by TLC. The levels of [α^32 P]ADP (o) and [α^32 P]AMP (q) are plotted as a function of time. An otherwise identical reaction containing 1 mM [γ^32 P]ATP was analyzed in parallel; Pi release (.cndot.). (FIG. 8D) ATP-dependence. Reaction mixtures (20 μl) containing 50 mM Tris HCl (pH 7.0), 5 mM DTT, 2 mM MnC2, 40 pg of Cet1p, and [γ^32 P]ATP as indicated were incubated for 15 min at 30° C. Pi release is plotted as a function of ATP concentration. […]

B1: Cet1p (Saccharomyces cerevisiae S288C) (protein)
chain: MSYTDNPPQTKRALSLDDLVNHDENEKVKLQKLSEAANGSRPFAENLESDINQTETGQAAPIDNYKESTGHGSHSQKPKSRKSSNDDEETDTDDEMGASGEINFDSEMDFDYDKQHRNLLSNGSPPMNDGSDANAKLEKPSDDSIHQNSKSDEEQRIPKQGNEGNIASNYITQVPLQKQKQTEKKIAGNAVGSVVKKEEEANAAVDNIFEEKATLQSKKNNIKRDLEVLNEISASSKPSKYRNVPIWAQKWKPTIKALQSINVKDLKIDPSFLNIIPDDDLTKSVQDWVYATIYSIAPELRSFIELEMKFGVIIDAKGPDRVNPPVSSQCVFTELDAHLTPNIDASLFKELSKYIRGISEVTENTGKFSIIESQTRDSVYRVGLSTQRPRFLRMSTDIKTGRVGQFIEKRHVAQLLLYSPKDSYDVKISLNLELPVPDNDPPEKYKSQSPISERTKDRVSYIHNDSCTRIDITKVENHNQNSKSRQSETTHEVELEINTPALLNAFDNITNDSKEYASLIRTFLNNGTIIRRKLSSLSYEIFEGSKKVM
notes: the two truncated proteins were as active as full-length Cet1p in hydrolyzing ATP; His-tag; made in house; host or cells: Escherichia coli BL21(DE3)
As to B1, in data set [1], the Km was 2.8 µM.

B2: Cet1(201-549)p (Saccharomyces cerevisiae S288C) (protein)
chain: ANAAVDNIFEEKATLQSKKNNIKRDLEVLNEISASSKPSKYRNVPIWAQKWKPTIKALQSINVKDLKIDPSFLNIIPDDDLTKSVQDWVYATIYSIAPELRSFIELEMKFGVIIDAKGPDRVNPPVSSQCVFTELDAHLTPNIDASLFKELSKYIRGISEVTENTGKFSIIESQTRDSVYRVGLSTQRPRFLRMSTDIKTGRVGQFIEKRHVAQLLLYSPKDSYDVKISLNLELPVPDNDPPEKYKSQSPISERTKDRVSYIHNDSCTRIDITKVENHNQNSKSRQSETTHEVELEINTPALLNAFDNITNDSKEYASLIRTFLNNGTIIRRKLSSLSYEIFEGSKKVM
notes: The kinetic parameters determined for ATP hydrolysis by Cet1(201-549)p; His-tag; made in house; host or cells: Escherichia coli BL21(DE3)
Take B2: the Km in data set [2] was 3.3 µM.
